Key:
Assay in all cases: pull-down binding Z-score (relative to library population); higher = stronger binding
Settings in all cases: RNA library: Library-2
[1] = tested on: TO-3-N3-2 (biotin conjugate)
Method in brief: (§1)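 Biotin-conjugated small molecule (100 pmol) on streptavidin beads was incubated with 1 μg of heat-folded Cy5- or Cy3-end-labelled RNA library in phosphate/NaCl/KCl buffer at 25 °C for 60 min. Following three washes, RNA was eluted with hot SDS and hybridised at 55.5 °C for 20 h to a DNA barcode microarray. The binding value is a Z-score computed from the library mean and standard deviation, after subtraction of beads without compound and averaging of barcoded replicate probes with the highest and lowest excluded.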

[2] = tested on: TO-N3-2 (biotin conjugate)
Method in brief: as §1

TO-N3 (biotin conjugate) = tested on: TO-N3 (biotin conjugate)
Method in brief: as §1

[3] = tested on: TO-3-N3 (biotin conjugate)
Method in brief: as §1

In the case of “CACAUCAGUAGUCUUACUCUCAGUUUUGCAACAACUCAGAGUAGAAUCAUCAUCUAAAUUGUG [DMSMaPseq_invitro_SARS-CoV-2_Motif_209]”, the “pull-down binding Z-score” value [1] is reported as -0.352, the “pull-down binding Z-score” value [2] is reported as -0.741 and the “pull-down binding Z-score” value (TO-N3 (biotin conjugate)) is reported as -0.843. For the same sequence, the “pull-down binding Z-score” value [3] was -0.736.

In the case of “GGUACAACAACUUACAAAUUAAAUGUUGGUGAUUAUUUUGUGCU [SHAPE_invivo_SARS-CoV-2_Motif_319]”, the “pull-down binding Z-score” value [1] is reported as -0.134, the “pull-down binding Z-score” value [2] is reported as -0.524 and the “pull-down binding Z-score” value (TO-N3 (biotin conjugate)) is reported as -0.509. The “pull-down binding Z-score” value [3] was -0.537.

“GCUCACCGUGCCCAGUGAGC [IAV_invivo_M1_M2_7_Motif_5+IAV_invivo_M1_M2_7_Motif_5]” was tested, and the “pull-down binding Z-score” value [1] was -0.154, the “pull-down binding Z-score” value [2] was -0.587 and the “pull-down binding Z-score” value (TO-N3 (biotin conjugate)) was 0.0761. The “pull-down binding Z-score” value [3] was 0.297.

“GGGGACGACCU [IAV_invivo_NA_6_Motif_17+IAV_invivo_NA_6_Motif_17]” was tested, and the “pull-down binding Z-score” value [1] was -0.417, the “pull-down binding Z-score” value [2] was -0.0675 and the “pull-down binding Z-score” value (TO-N3 (biotin conjugate)) was 0.481. For the same sequence, the “pull-down binding Z-score” value [3] was 0.479.

In the case of “CCAGUAUGGUGG [IAV_invivo_PB1_2_Motif_36+IAV_invivo_PB1_2_Motif_36]”, the “pull-down binding Z-score” value [1] is reported as -0.471, the “pull-down binding Z-score” value [2] is reported as -0.372 and the “pull-down binding Z-score” value (TO-N3 (biotin conjugate)) is reported as -0.423. The “pull-down binding Z-score” value [3] was -0.26.

For “GGACCUGAGCGCACCUGUUGUCU [SHAPE_invivo_SARS-CoV-2_Motif_351]”, the “pull-down binding Z-score” value [1] was 0.645, the “pull-down binding Z-score” value [2] was 1.67 and the “pull-down binding Z-score” value (TO-N3 (biotin conjugate)) was 1.58. For the same sequence, the “pull-down binding Z-score” value [3] was 0.863.

With UCUGUUUGGAACUUUAAUUUUAGCCAUGGCAGA the “pull-down binding Z-score” value [1] was -0.0381, the “pull-down binding Z-score” value [2] was 0.0796 and the “pull-down binding Z-score” value (TO-N3 (biotin conjugate)) was -0.72. The “pull-down binding Z-score” value [3] was -0.689.

For ACACUCUACGUGU, the “pull-down binding Z-score” value [1] was -0.979, the “pull-down binding Z-score” value [2] was -1.93 and the “pull-down binding Z-score” value (TO-N3 (biotin conjugate)) was -1.78. The “pull-down binding Z-score” value [3] was -1.14.

For “GGAGAGUGUUCAGACAUUCUUU [SHAPE_invitro_SARS-CoV-2_Motif_44]”, the “pull-down binding Z-score” value [1] was -0.361, the “pull-down binding Z-score” value [2] was -0.602 and the “pull-down binding Z-score” value (TO-N3 (biotin conjugate)) was -0.508. For the same sequence, the “pull-down binding Z-score” value [3] was -0.535.

With UCAUUAAUUGA the “pull-down binding Z-score” value [1] was -0.664, the “pull-down binding Z-score” value [2] was -1.65 and the “pull-down binding Z-score” value (TO-N3 (biotin conjugate)) was -1.27. For the same sequence, the “pull-down binding Z-score” value [3] was -0.712.

For “GGGCUCAUACCC [IAV_invivo_HA_4_Motif_7+IAV_invivo_HA_4_Motif_7]”, the “pull-down binding Z-score” value [1] was 0.875, the “pull-down binding Z-score” value [2] was 0.397 and the “pull-down binding Z-score” value (TO-N3 (biotin conjugate)) was 0.483. For the same sequence, the “pull-down binding Z-score” value [3] was 0.721.

With “UAACACCAGGAACAAAUACUUCUAACCAGGUUGCUGUUCUUUAUCAGGGUGUUA [SHAPE_invivo_SARS-CoV-2_Motif_440]” the “pull-down binding Z-score” value [1] was -0.22, the “pull-down binding Z-score” value [2] was -1.19 and the “pull-down binding Z-score” value (TO-N3 (biotin conjugate)) was -0.633. For the same sequence, the “pull-down binding Z-score” value [3] was -0.383.

In the case of “UAGAGAAAACAACAGAGUUGUUAUUUCUAGUGAUGUUCUUGUUAACAACUAAACGAACAAUGUUUGUUUUUCUUGUUUUAUUGCCACUAGUCUCUA [SHAPE_invitro_SARS-CoV-2_Multi_58_ComplexLevel_1]”, the “pull-down binding Z-score” value [1] is reported as -0.215, the “pull-down binding Z-score” value [2] is reported as -0.78 and the “pull-down binding Z-score” value (TO-N3 (biotin conjugate)) is reported as -0.976. The “pull-down binding Z-score” value [3] was -0.989.

In the case of AACUUUAGCUUGUUUUGUGCUUGCUGCUGUU, the “pull-down binding Z-score” value [1] is reported as -0.0892, the “pull-down binding Z-score” value [2] is reported as -0.708 and the “pull-down binding Z-score” value (TO-N3 (biotin conjugate)) is reported as 0.34. The “pull-down binding Z-score” value [3] was 0.701.

“GGUCCAGCAACAGCUCAAAUGGCC [IAV_invivo_PB1_2_Motif_29+IAV_invivo_PB1_2_Motif_29]” was tested, and the “pull-down binding Z-score” value [1] was -0.356, the “pull-down binding Z-score” value [2] was 0.392 and the “pull-down binding Z-score” value (TO-N3 (biotin conjugate)) was -0.26. For the same sequence, the “pull-down binding Z-score” value [3] was -0.414.

With “GGCGAAUCUGGCGCC [IAV_invivo_NP_5_Motif_7+IAV_invivo_NP_5_Motif_7]” the “pull-down binding Z-score” value [1] was -0.231, the “pull-down binding Z-score” value [2] was 0.288 and the “pull-down binding Z-score” value (TO-N3 (biotin conjugate)) was 0.493. The “pull-down binding Z-score” value [3] was 0.577.

With “CUGCACUGUUAGCGGGUACAAUCACUUCUGGUUGGACCUUUGGUGCAG [SHAPE_invitro_SARS-CoV-2_Motif_437]” the “pull-down binding Z-score” value [1] was -0.189, the “pull-down binding Z-score” value [2] was -0.738 and the “pull-down binding Z-score” value (TO-N3 (biotin conjugate)) was -0.574. For the same sequence, the “pull-down binding Z-score” value [3] was -0.428.

With “GUAGAGGAGGCAAAGACAGUGCUUAAAAAGUGUAAAAGUGCCUUUUAC” the “pull-down binding Z-score” value [1] was 0.448, the “pull-down binding Z-score” value [2] was 0.576 and the “pull-down binding Z-score” value (TO-N3 (biotin conjugate)) was -0.193. For the same sequence, the “pull-down binding Z-score” value [3] was -0.449.

In the case of “GGCCUCACGGCC [IAV_invivo_PB1_2_Motif_9+IAV_invivo_PB1_2_Motif_9]”, the “pull-down binding Z-score” value [1] is reported as -0.354, the “pull-down binding Z-score” value [2] is reported as -0.914 and the “pull-down binding Z-score” value (TO-N3 (biotin conjugate)) is reported as -0.332. The “pull-down binding Z-score” value [3] was 0.0835.

With “UCGCUUGCAAGUUGGAUUCAGAAUGAGUUUAACAAGGCAUGCGA [IAV_invivo_PA_3_Motif_18+IAV_invivo_PA_3_Motif_18]” the “pull-down binding Z-score” value [1] was -0.227, the “pull-down binding Z-score” value [2] was -0.838 and the “pull-down binding Z-score” value (TO-N3 (biotin conjugate)) was -0.603. The “pull-down binding Z-score” value [3] was -0.53.

With “UGCCGACUACUAUAGCAAAGAAUACUGUUAAGAGUGUCGGUA” the “pull-down binding Z-score” value [1] was -0.206, the “pull-down binding Z-score” value [2] was -0.182 and the “pull-down binding Z-score” value (TO-N3 (biotin conjugate)) was -0.385. For the same sequence, the “pull-down binding Z-score” value [3] was -0.357.

“GAGUUUUUAGUGCAGUUGGUAACAUCUGUUACACACCAUCAAAACUU” was tested, and the “pull-down binding Z-score” value [1] was -0.12, the “pull-down binding Z-score” value [2] was 0.396 and the “pull-down binding Z-score” value (TO-N3 (biotin conjugate)) was 0.0323. For the same sequence, the “pull-down binding Z-score” value [3] was -0.305.

For “GCUAAAUUGUUACAUAAACCUAUUGUUUGGCAUGUUAACAAUGC [SHAPE_invitro_SARS-CoV-2_Motif_124]”, the “pull-down binding Z-score” value [1] was -0.265, the “pull-down binding Z-score” value [2] was -1.24 and the “pull-down binding Z-score” value (TO-N3 (biotin conjugate)) was -0.96. For the same sequence, the “pull-down binding Z-score” value [3] was -0.783.

For “UCUGAAGAAGUAGUGGAAAAUCCUACCAUACAGA [DMSMaPseq_invitro_SARS-CoV-2_Motif_122]”, the “pull-down binding Z-score” value [1] was -0.226, the “pull-down binding Z-score” value [2] was 0.514 and the “pull-down binding Z-score” value (TO-N3 (biotin conjugate)) was 0.657. For the same sequence, the “pull-down binding Z-score” value [3] was -0.124.

With GUGGCACUGAGAAUUUGACUAAAGAAGGUGCCAC the “pull-down binding Z-score” value [1] was 0.147, the “pull-down binding Z-score” value [2] was 0.38 and the “pull-down binding Z-score” value (TO-N3 (biotin conjugate)) was 0.595. For the same sequence, the “pull-down binding Z-score” value [3] was 0.452.

Reference: the supplement of paper PMC11865577
